From publication PMC9709291 (Frontiers in Immunology, 2022) come the findings set out here.

This assay concerns the target TcdA^1073-1464 (fragment of the delivery and receptor-binding domain of TcdA, residues 1073-1464) (Clostridioides difficile VPI10463, UniProt P16154). Briefly: pull-down. Conditions: both partners purified.

Chain of TcdA^1073-1464 (fragment of the delivery and receptor-binding domain of TcdA, residues 1073-1464) (P16154 1073-1464): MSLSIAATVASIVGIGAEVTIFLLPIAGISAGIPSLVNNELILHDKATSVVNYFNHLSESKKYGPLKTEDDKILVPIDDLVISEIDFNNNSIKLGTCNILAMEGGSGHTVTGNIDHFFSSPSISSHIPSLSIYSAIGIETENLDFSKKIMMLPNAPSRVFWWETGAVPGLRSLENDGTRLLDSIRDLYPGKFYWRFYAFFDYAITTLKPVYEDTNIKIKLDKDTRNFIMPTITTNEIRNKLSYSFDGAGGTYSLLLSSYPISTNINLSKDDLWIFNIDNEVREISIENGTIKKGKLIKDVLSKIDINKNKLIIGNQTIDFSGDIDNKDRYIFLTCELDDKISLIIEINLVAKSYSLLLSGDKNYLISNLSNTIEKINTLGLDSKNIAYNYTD

B1: VHH AA6 (VHH)
VHH: QVQLVESGGGLVQPGGSLRLSCAASGFTFSDYVMTWVRQAPGKGPEWIATINTDGSTMRDDSTKGRFTISRDNAKNTLYLQMTSLKPEDTALYYCARGRVISASAIRGAVRGPGTQVTVSS
Consider B1, for which the binding result was “binds”.
